Test results published in patent US7279548B2, “Identification and isolation of novel polypeptides having WW domains and methods of using same” (Cytogen Corporation, priority 1996, dated 2007).
No end group written: not given here.

Tests used:
[1] = system: twelve individual novel WW domains of WWP1, WWP2, WWP3 and WWP4; experiment: ELISA based cross affinity mapping, whole panel of novel WW domains; type: binding, human; conditions: biotinylated peptide-streptavidin/alkaline phosphatase complex, GST fusion proteins
Description: (§1) The 16 day mouse embryo cDNA expression library was diluted 1:1000 in SM solution (100 mM NaCl, 8 mM MgSOv4, 50 mM Tris HCl pH 7.5, 0.01% gelatin). To a sterile test tube, 2 μl of diluted mouse embryo library, 100 μl of 10 mM CaCl2, 100 μl of 10 mM MgCl2 and 100 μl of BL21(DE3)pLysE bacterial cells (grown overnight) were added and incubated for 30 minutes at 37° C. The contents of the tube were mixed with 3 ml of 0.6% top agarose, containing […] chloramphenicol, and poured onto a 2xYT plate (90 mm diameter). For a large primary screen, 10–20 plates were prepared with 3×10^4 pfu per plate. After 6 hours incubation at 37° C., a nitrocellulose filter soaked in 10 mM isopropyl-β-D-thiogalactopyranoside (IPTG) was overlaid on each plate and incubated 3–6 hours at 37° C. Before the filters were removed from the plates, they were marked asymmetrically with India ink in a 18 gauge syringe needle. The plates were stored at 4° C. until ready for the secondary screen. The filters were washed with PBS (137 mM NaCl, 2.7 mM KCl, 4.3 mM Na2HPO4, 1.4 mM KH2PO4)-0.05% Triton X-100 three times at room temperature, 15 minutes each wash, and then placed in a plastic bag containing non-specific blocking solution (PBS-2% BSA) for one hour. In the meantime, 1 ml of 1 mM biotinylated peptide in PBS-0.1% Tween 20 was added to 20 ml of 1 mg/ml streptavidin-alkaline phosphatase (SA-AP) in PBS-0.1% Tween 20 and incubated at 4° C. for 30 minutes. […] Excess biotin-binding sites would then be blocked by addition of 500 pmol biotin. […] Ten μl of 0.1 mM biotin would then be added, and the solution incubated for an additional 15 min.
(§2) To determine the ligand preferences of the novel WW omain-containing clones described in Sections 6.1 and 6.1.1, as well as addressing the issue of whether peptides containing PPPPY (SEQ ID NO:3)-like motifs derived from a variety of proteins could also serve as recognition units and bind to these clones, a cross affinity mapping experiment was performed (FIGS. 15A–D). The peptides shown in FIGS. 15A–D were synthesized, biotinylated, complexed with streptavidin-alkaline phosphatase, and tested in an ELISA based assay for their ability to bind to the twelve individual novel WW domains of WWP1, WWP2, WWP3 and WWP4 which were expressed as GST fusion proteins. The ELISA based cross-affinity experiments were performed essentially as described by Sparks et al. (1996, Proc. Natl. Acad. Sci. 93:1540–1544) with the following modifications. Briefly, microtiter wells were coated with 1–5 μg of fusion protein in 100 mM NaHCO3, blocked with SuperBlock TBS (Pierce) and washed four times with PBS, 0.05% Tween 20. Specific peptide-streptavidin/alkaline phosphatase complexes were added as above and unbound complexes washed five times with PBS, 0.05% Tween 20. Following addition of PNP substrate (p-nitrophenyl phosphate, Kirkegard & Perry Labs), peptide binding was quantitated after 30 min. at O.D. 405 nm. Relative binding measurements from three independent determinations were assigned to a scale as follows: O.D. units 0–0.5=(−), 0.5–1.0=(+), 1.0–2.0=(++), 2.0–3.0=(+++), >3.0=(++++). Peptide binding to human Fyn and Lyn SH3 and SH2 domains was assessed by a filter binding assay (see Section 6.1 and Sparks et al., 1996, Proc. Natl. Acad. Sci 93:1540–1544). Peptide sequences used in cross-affinity experiments correspond to segments of the following genes: RasGap (Database accession # P20936), AP-2 (P05549), p53BP-2 (U09582), IL-6Rα (P22272), voltage-gated chloride channel CLCN5 (X91906), IL-2Rγ (D111086), RSV (D10652), HTLV-1 (D13784), β-dystroglycan (L19711), Formin (X53599), amiloride-sensitive epithelial Na^+ channel ENaCα (P37089), ENaCβ (X87159) and ENaCγ (X87160), muscarinic acetylcholine receptor M4 AChR (P08173), and c-Abl (P00522). Src and Crk SH3 binding peptide sequences were derived from a phage display random peptide library screen (Section 6.1 and Sparks et al., 1996, Proc. Natl. Acad. Sci. 93:1540–1544).

[2] = molecular target: T1, WW domains of WWP2 expressed as GST fusion proteins (Homo sapiens, UniProt O00308); experiment: ELISA based cross affinity mapping, WW domains of WWP2; type: binding
T1 construct: twelve individual novel WW domains of WWP1, WWP2, WWP3 and WWP4 which were expressed as GST fusion proteins; made in house
Description: as §1, §2

[3] = molecular target: T2, WW domains of WWP1 expressed as GST fusion proteins (Homo sapiens, UniProt Q9H0M0); experiment: ELISA based cross affinity mapping, WW domains of WWP1; type: binding; conditions: GST fusion protein
T2 construct: twelve individual novel WW domains of WWP1, WWP2, WWP3 and WWP4 which were expressed as GST fusion proteins; made in house
Description: as §1, §2

[4] = system: WW domains of WWP4 expressed as GST fusion proteins; experiment: ELISA based cross affinity mapping, WW domains of WWP4; type: binding, human; conditions: biotinylated peptide-streptavidin/alkaline phosphatase complex; GST fusion proteins; ELISA
Description: as §1, §2

[5] = molecular target: T3, WW domains of WWP4 expressed as GST fusion proteins (Homo sapiens, UniProt Q96PU5); experiment: as above; type: binding; conditions: GST fusion protein
T3 construct: twelve individual novel WW domains of WWP1, WWP2, WWP3 and WWP4 which were expressed as GST fusion proteins; made in house
Description: as §1, §2

[6] = system: WW domains of WWP2 expressed as GST fusion proteins; experiment: ELISA based cross affinity mapping, WW domains of WWP2; type: binding, human; conditions: biotinylated peptide-streptavidin/alkaline phosphatase complex; GST fusion proteins; ELISA
Description: as §1, §2

[7] = system: WW domains of WWP1 expressed as GST fusion proteins; experiment: ELISA based cross affinity mapping, WW domains of WWP1; type: binding, human; conditions: biotinylated peptide-streptavidin/alkaline phosphatase complex; GST fusion proteins; ELISA
Description: as §1, §2

binding to individual WW domain WWP2.4 ([2]; GST fusion protein)	binding to individual WW domain WWP1.4 [3]	binding to WW domains of WWP4 [4]	binding to individual WW domain WWP2.3 ([2]; GST fusion protein)	binding to individual WW domain WWP1.2 [3]	binding to individual WW domain WWP4.1 [5]	binding to individual WW domain WWP4.2 [5]	binding to individual WW domain WWP4.3 [5]	binding to WW domains of WWP2 [6]	binding to individual WW domain WWP2.1 ([2]; GST fusion protein)	binding to individual WW domain WWP2.2 ([2]; GST fusion protein)	O.D. after 30 minutes at 405 nm ([2]; individual WW domain WW2.4, GST fusion protein)	binding to individual WW domain WWP1.1 [3]	binding to WW domains of WWP1 [7]	Substance	binding to the novel WW domains (WWP1, WWP2, WWP3, WWP4 panel) [1]
appreciable binding	appreciable binding													CLCN5: peptide from the voltage-gated renal chloride channel CLCN5 (X91906) (SPPLPPYTPP)	bound to WW domains from one or more of the four novel clones
		loss of binding activity	did not abolish binding	did not abolish binding										WBP-1-Pro2: alanine substitution variant of WBP-1 at the second proline residue of the PPPPY motif (SGSGPGTPAPPYTVGPGY)	
binds	binds	bind to individual WW domains			binds	binds	binds	bind to individual WW domains	binds	binds	3.0	binds	bind to individual WW domains	bWW059: biotinylated peptide corresponding to the wild-type PPPPY-like motif in the HECT domain of WWP4 (NRLDLPPYETFED; also: biotinylated, site not given here)	
